Test results reported in patent US7399752.

Molecular target: LS-Rg, chimeric protein of the extracellular domain of human L-selectin joined to the Fc domain of a human G2 immunoglobulin (human) (UniProt P14151)
Test: competition with radio-labeled 2'-F RNA ligand LF1807 for purified LS-Rg

Chain of LS-Rg, chimeric protein of the extracellular domain of human L-selectin joined to the Fc domain of a human G2 immunoglobulin (human) (P14151 39-332, change not shown): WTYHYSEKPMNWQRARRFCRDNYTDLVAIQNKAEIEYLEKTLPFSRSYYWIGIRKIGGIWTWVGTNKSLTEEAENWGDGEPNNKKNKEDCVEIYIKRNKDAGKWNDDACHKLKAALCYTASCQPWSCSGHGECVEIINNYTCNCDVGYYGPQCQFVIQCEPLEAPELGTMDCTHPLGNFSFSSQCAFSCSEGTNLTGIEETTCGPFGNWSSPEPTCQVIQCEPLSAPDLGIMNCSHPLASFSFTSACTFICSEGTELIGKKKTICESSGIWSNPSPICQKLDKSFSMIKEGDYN

concentration at which inhibition was complete: 300 nM
Substance: DREG-56, L-selectin specific blocking monoclonal antibody
